# Measurements published in the supplement of paper PMC10567573.
# B1: EPB41L3 (parent)
# chain: SELGDYDPDECGSDYISEFRFAPN
# Variants of: B1
# Experiment: protein stability index of a GFP-peptide fusion (GPS, HEK-293T) (PSI 1-6); higher = more stable
# Conditions: c terminus: a fixed tail appended
# 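Also: lentivirally expressed fusions sorted by FACS into six bins by GFP to DsRed ratio, PSI derived from sequencing read proportions per bin multiplied by bin number.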
row,Variant,protein stability index
1,SELGDYDPDECGSDYISERRFAPN [F19R],4.78
2,SELGDYDPDECGSDYISESRFAPN [F19S],5.13
3,SELGDYDPDECGSDYISETRFAPN [F19T],4.97
4,SELGDYDPDECGSDYISEVRFAPN [F19V],4.38
5,SELGDYDPDECGSDYISEWRFAPN [F19W],2.61
6,SELGDYDPDECGSDYISEYRFAPN [F19Y],4.57
7,SELGDYDPDECGSDYISEFAFAPN [R20A],4.25
8,SELGDYDPDECGSDYISEFCFAPN [R20C],4.56
9,SELGDYDPDECGSDYISEFDFAPN [R20D],4.72
10,SELGDYDPDECGSDYISEFEFAPN [R20E],5.02
11,SELGDYDPDECGSDYISEFFFAPN [R20F],4.09
12,SELGDYDPDECGSDYISEFGFAPN [R20G],4.79
13,SELGDYDPDECGSDYISEFHFAPN [R20H],4.32
14,SELGDYDPDECGSDYISEFIFAPN [R20I],3.75
15,SELGDYDPDECGSDYISEFKFAPN [R20K],4.53
16,SELGDYDPDECGSDYISEFLFAPN [R20L],4.02
17,SELGDYDPDECGSDYISEFMFAPN [R20M],3.92
18,SELGDYDPDECGSDYISEFNFAPN [R20N],4.54
19,SELGDYDPDECGSDYISEFPFAPN [R20P],4.81
20,SELGDYDPDECGSDYISEFQFAPN [R20Q],4.7
21,SELGDYDPDECGSDYISEFSFAPN [R20S],4.68
22,SELGDYDPDECGSDYISEFTFAPN [R20T],4.18
23,SELGDYDPDECGSDYISEFVFAPN [R20V],4.4
24,SELGDYDPDECGSDYISEFWFAPN [R20W],3.92

row,Variant,protein stability index
1,SELGDYDPDECGSDYISEFYFAPN [R20Y],3.75
2,SELGDYDPDECGSDYISEFRAAPN [F21A],4.75
3,SELGDYDPDECGSDYISEFRCAPN [F21C],4.69
4,SELGDYDPDECGSDYISEFRDAPN [F21D],4.68
5,SELGDYDPDECGSDYISEFREAPN [F21E],4.78
6,SELGDYDPDECGSDYISEFRGAPN [F21G],5.01
7,SELGDYDPDECGSDYISEFRHAPN [F21H],4.17
8,SELGDYDPDECGSDYISEFRIAPN [F21I],4.38
9,SELGDYDPDECGSDYISEFRKAPN [F21K],5.22
10,SELGDYDPDECGSDYISEFRLAPN [F21L],4.61
11,SELGDYDPDECGSDYISEFRMAPN [F21M],4.43
12,SELGDYDPDECGSDYISEFRNAPN [F21N],4.74
13,SELGDYDPDECGSDYISEFRPAPN [F21P],4.96
14,SELGDYDPDECGSDYISEFRQAPN [F21Q],4.97
15,SELGDYDPDECGSDYISEFRRAPN [F21R],4.64
16,SELGDYDPDECGSDYISEFRSAPN [F21S],5.07
17,SELGDYDPDECGSDYISEFRTAPN [F21T],4.87
18,SELGDYDPDECGSDYISEFRVAPN [F21V],4.52
19,SELGDYDPDECGSDYISEFRWAPN [F21W],4.24
20,SELGDYDPDECGSDYISEFRYAPN [F21Y],4.55
21,SELGDYDPDECGSDYISEFRFCPN [A22C],2.59
22,SELGDYDPDECGSDYISEFRFDPN [A22D],4.92
23,SELGDYDPDECGSDYISEFRFEPN [A22E],4.24
24,SELGDYDPDECGSDYISEFRFFPN [A22F],3.5

row,Variant,protein stability index
1,SELGDYDPDECGSDYISEFRFGPN [A22G],4.21
2,SELGDYDPDECGSDYISEFRFHPN [A22H],2.13
3,SELGDYDPDECGSDYISEFRFIPN [A22I],2.24
4,SELGDYDPDECGSDYISEFRFKPN [A22K],4.27
5,SELGDYDPDECGSDYISEFRFLPN [A22L],3.73
6,SELGDYDPDECGSDYISEFRFMPN [A22M],3.48
7,SELGDYDPDECGSDYISEFRFNPN [A22N],3.46
8,SELGDYDPDECGSDYISEFRFPPN [A22P],4
9,SELGDYDPDECGSDYISEFRFQPN [A22Q],2.39
10,SELGDYDPDECGSDYISEFRFRPN [A22R],4.12
11,SELGDYDPDECGSDYISEFRFSPN [A22S],3.33
12,SELGDYDPDECGSDYISEFRFTPN [A22T],1.85
13,SELGDYDPDECGSDYISEFRFVPN [A22V],3.42
14,SELGDYDPDECGSDYISEFRFWPN [A22W],3.47
15,SELGDYDPDECGSDYISEFRFYPN [A22Y],3.51
16,SELGDYDPDECGSDYISEFRFAAN [P23A],2.48
17,SELGDYDPDECGSDYISEFRFACN [P23C],2.12
18,SELGDYDPDECGSDYISEFRFADN [P23D],4
19,SELGDYDPDECGSDYISEFRFAEN [P23E],4.66
20,SELGDYDPDECGSDYISEFRFAFN [P23F],2.96
21,SELGDYDPDECGSDYISEFRFAGN [P23G],2.37
22,SELGDYDPDECGSDYISEFRFAHN [P23H],2.44
23,SELGDYDPDECGSDYISEFRFAIN [P23I],2.7
24,SELGDYDPDECGSDYISEFRFAKN [P23K],2.68

row,Variant,protein stability index
1,SELGDYDPDECGSDYISEFRFALN [P23L],2.81
2,SELGDYDPDECGSDYISEFRFAMN [P23M],3.26
3,SELGDYDPDECGSDYISEFRFANN [P23N],2.42
4,SELGDYDPDECGSDYISEFRFAQN [P23Q],2.92
5,SELGDYDPDECGSDYISEFRFARN [P23R],1.53
6,SELGDYDPDECGSDYISEFRFASN [P23S],2.51
7,SELGDYDPDECGSDYISEFRFATN [P23T],3.15
8,SELGDYDPDECGSDYISEFRFAVN [P23V],2.53
9,SELGDYDPDECGSDYISEFRFAWN [P23W],2.47
10,SELGDYDPDECGSDYISEFRFAYN [P23Y],2.89
11,SELGDYDPDECGSDYISEFRFAPA [N24A],2.6
12,SELGDYDPDECGSDYISEFRFAPC [N24C],1.64
13,SELGDYDPDECGSDYISEFRFAPD [N24D],2.89
14,SELGDYDPDECGSDYISEFRFAPE [N24E],3.33
15,SELGDYDPDECGSDYISEFRFAPF [N24F],2.25
16,SELGDYDPDECGSDYISEFRFAPG [N24G],2.33
17,SELGDYDPDECGSDYISEFRFAPH [N24H],1.66
18,SELGDYDPDECGSDYISEFRFAPI [N24I],2.55
19,SELGDYDPDECGSDYISEFRFAPK [N24K],1.69
20,SELGDYDPDECGSDYISEFRFAPL [N24L],2.02
21,SELGDYDPDECGSDYISEFRFAPM [N24M],1.79
22,SELGDYDPDECGSDYISEFRFAPP [N24P],2.84
